The results in this text go back to paper PMC9038204 (PLoS Biology, 2022).

As usually defined, the Kd is the concentration at which binding is half-saturated. A lower Kd goes with higher affinity.

B4: isolated FERM domain of human SNX27 (domain or fragment, UniProt Q96L92 269-531, looked up)
chain: YNGVSDVELRVALPDGTTVTVRVKKNSTTDQVYQAIAAKVGMDSTTVNYFALFEVISHSFVRKLAPNEFPHKLYIQNYTSAVPGTCLTIRKWLFTTEEEILLNDNDLAVTYFFHQAVDDVKKGYIKAEEKSYQLQKLYEQRKMVMYLNMLRTCEGYNEIIFPHCACDSRRKGHVITAISITHFKLHACTEEGQLENQVIAFEWDEMQRWDTDEEGMAFCFEYARGEKKPRWVKIFTPYFNYMHECFERVFCELKWRKENIFQM
notes: FERM domain of human SNX27; pET-28a, TEV site between His-tag and SNX27; also called hSNX27_(FERM); source: E. coli BL21 (DE3), purified (TALON or Ni-NTA, SEC, Mono Q)

What all share (settings): both partners purified
Test [1] has as its target T1, full-length human SNX27, wild-type (human, UniProt Q96L92 1-541).
T1 construct: sorting nexin-27 (SNX27), human; pET-28a, TEV site between His-tag and SNX27; also called hSNX27FL; hSNX27 WT; source: E. coli BL21 (DE3), purified (TALON or Ni-NTA, SEC)
The test is described as follows: ITC; 600 μM SNX1 75-92 peptide titrated into 20 μM hSNX27 wild-type or single-site mutant; 25°C; 50 mM HEPES pH 7.5, 200 mM NaCl, 5% glycerol, 1 mM β-ME; single-site model.

In another test the target is T2, human SNX27 K496D (human, UniProt Q96L92 1-541, K496D).
T2 construct: human SNX27 single-site mutant; printed as R496D in the text and as K496D in the legend and the methods; also called hSNX27 K496D; SNX27(R496D); source: E. coli BL21 (DE3), purified (TALON or Ni-NTA, SEC)
The description is as above.

The target of test [2] is T3, full-length mouse SNX27 (mouse, UniProt Q3UHD6 1-539).
T3 construct: sorting nexin-27 (SNX27), mouse; also called mSNX27FL
Description: ITC; 800 μM SNX1 or SNX2 peptide titrated into 20 μM mSNX27FL; 25°C; 50 mM HEPES pH 7.5, 200 mM NaCl, 5% glycerol, 1 mM β-ME with 1:10 peptide buffer (100 mM Tris-HCl pH 10.6); single-site model. A general note: ITC needs no label: the signal is the heat of the interaction.

The target of test [3] is T4, full-length mouse SNX27 (mouse, UniProt Q3UHD6 1-539).
T4 construct: sorting nexin-27 (SNX27), mouse, full length; pMCSG7 vector by ligation-independent cloning; also called mSNX27FL
The test is described as follows: ITC; 800 μM hSNX1 or hSNX2 peptide (syringe) titrated into 20 μM mSNX27FL (cell); 25°C; 50 mM HEPES pH 7.5, 200 mM NaCl, 5% glycerol, 1 mM β-ME with 1:10 peptide buffer (100 mM Tris-HCl pH 10.6); single-site model.

Test [4] has as its target B4. Description: ITC; 800 μM hSNX27 FERM titrated into 20 μM GST-mSNX1(1-139) or His-SNX1FL; 25°C; 50 mM HEPES pH 7.5, 200 mM NaCl, 5% glycerol, 1 mM β-ME; single-site model.
The target in test [5] is T5, full-length mouse SNX1 with an amino-terminal His-tag (mouse, UniProt Q9WV80 1-522).
T5 construct: sorting nexin-1 (SNX1), mouse; vector pMW172Kan; also called mSNX1FL; His-SNX1FL; source: E. coli BL21 CodonPlus (DE3), purified (TALON or Ni-NTA, SEC); not shown: His-tag, N-terminal, kept
The description is as above.

In test [6] the target is T6, full-length human SNX27, wild type (human, UniProt Q96L92 1-541).
T6 construct: sorting nexin-27 (SNX27), human, full length; also called hSNX27FL; hSNX27 WT
The test is described as follows: ITC; 600 μM hSNX1(75-92) peptide (syringe) titrated into 20 μM hSNX27FL wild type or single-site mutant (cell); 25°C; 50 mM HEPES pH 7.5, 200 mM NaCl, 5% glycerol, 1 mM β-ME; single-site model.

B1: SNX1_(75-92) peptide (peptide)
peptide: NGIHEEQDQEPQDLFADA
notes: human SNX1 residues 75 to 92; also called second aDLF motif of human SNX1; source: synthetic peptide (Genscript)
In the case of B1, the Kd in test [1] came to 12.7 µM; with human SNX27 K496D, 56.4 µM; with full-length mouse SNX27 [2] it was 13.3 µM.

B2: human SNX1 peptide, residues 35-51 (first aDLF motif) (peptide)
peptide: EAGDSDTEGEDIFTGAA
notes: sorting nexin-1 (SNX1), human, residues 35 to 51; also called hSNX1 35-51; SNX1_(35-51); source: synthetic peptide (Genscript)
B2: the Kd in the test with full-length mouse SNX27 [3] came to 33.4 ± 1.89 µM.

B3: GST-mSNX1(1-139) (domain or fragment, mouse, UniProt Q9WV80 1-139, looked up)
chain: MASGGGGCSASERLPPPFPGMDPESEGAAGASEPEAGDSDTEGEDIFTGAAAATKPQSPKKTTSLFPIKNGSKENGIHEDQDQEPQDLFADATVELSLDSTQNNQKTMPGKTLTSHSPQEATNSPKPQPSYEELEEEEQ
notes: mouse SNX1 residues 1 to 139; vector pGEX4T-2, thrombin-cleavable GST; eluted with glutathione and named GST-mSNX1(1-139) in the ITC; also called amino-terminal extension of mouse SNX1; source: E. coli BL21 CodonPlus (DE3), purified (glutathione Sepharose, SEC); not shown: GST, N-terminal, kept
For the molecule B3, the Kd in test [4] is 39.1 µM.
In test [5], B4 registered a Kd of 41 µM.

B5: SNX1_(35-51) peptide (peptide)
peptide: EAGDSDTEGEDIFTGAA
notes: human SNX1 residues 35 to 51; also called first aDLF motif of human SNX1; source: synthetic peptide (Genscript)
As for B5, in the test with full-length mouse SNX27 [2], the affinity, expressed as Kd, was 33.4 µM.

B6: SNX2_(62-82) peptide (peptide)
peptide: TEVVLDDDREDLFAEATEEVS
notes: human SNX2 residues 62 to 82; also called second aDLF motif of SNX2; source: synthetic peptide (Genscript)
In turn, B6 showed a Kd with full-length mouse SNX27 [2] of 22.6 µM.

B7: SNX2_(16-33) peptide (peptide)
peptide: TDFEDLEDGEDLFTSTVS
notes: human SNX2 residues 16 to 33; also called first aDLF motif of SNX2; source: synthetic peptide (Genscript)
In the test with full-length mouse SNX27 [2], B7 gave a Kd of 37.8 µM.

B8: human SNX2 peptide, residues 62-82 (second aDLF motif) (peptide)
peptide: TEVVLDDDREDLFAEATEEVS
notes: sorting nexin-2 (SNX2), human, residues 62 to 82; also called hSNX2 62-82; SNX2_(62-82); source: synthetic peptide (Genscript)
Regarding B8, binding with full-length mouse SNX27 [3] was put at a Kd of 22.6 ± 1.89 µM.

B9: human SNX1 peptide, residues 75-92 (second aDLF motif) (peptide)
peptide: NGIHEEQDQEPQDLFADA
notes: sorting nexin-1 (SNX1), human, residues 75 to 92; also called hSNX1 75-92; SNX1_(75-92); source: synthetic peptide (Genscript)
With B9, the Kd in test [6] is 12.8 ± 0.47 µM; with full-length mouse SNX27 [3], 13.4 ± 0.75 µM.
